Reference: patent US20210283212A1 (RA PHARMACEUTICALS, published 2021)
Where two headings read alike, the source gives them in different places. Positions of bridges follow the written chain, without caps; N, C: chain ends. Non-standard residues stand in square brackets, D forms with d. Primed or numbered codes have the meaning given here. No end group written: not given here. *: point of attachment. mXylyl(3) = bridging moiety between the two residues given in brackets; m‑xylyl = bridging moiety between the two residues given in brackets; Lys(ivDde) = CC(C)CC(NCCCC[C@H](N)C(=O)O)=C1C(=O)CC(C)(C)CC1=O; mXylyl″ = bridging moiety between the two marked residues; Ala(1H-tetrazol-5-yl) = N[C@@H](Cc1nnn[nH]1)C(=O)O; Trp(5-F) = N[C@@H](Cc1c[nH]c2ccc(F)cc12)C(=O)O; Trp(7-aza) = N[C@@H](Cc1c[nH]c2ncccc12)C(=O)O; mXylyl(4) = bridging moiety between residues; Trp(1-Me) = Cn1cc(C[C@H](N)C(=O)O)c2ccccc21; Palmitoyl = CCCCCCCCCCCCCCCC(=O)*; NMeD = CN[C@@H](CC(=O)O)C(=O)O; Chg = N[C@H](C(=O)O)C1CCCCC1; Phg = N[C@H](C(=O)O)c1ccccc1; Tle = CC(C)(C)[C@H](N)C(=O)O; NMeS = CN[C@@H](CO)C(=O)O; Nva = CCC[C@H](N)C(=O)O; Thp = NC1(C(=O)O)CCOCC1; Mpa = O=C(O)CCS

B1: R3110 (peptide)
peptide: Ac-YEN[Tle]Y[Trp(1-Me)]EYP[Phg][Nva]-NH2
SMILES: CCC[C@H](NC(=O)[C@@H](NC(=O)[C@@H]1CCCN1C(=O)[C@H](Cc1ccc(O)cc1)NC(=O)[C@H](CCC(=O)O)NC(=O)[C@H](Cc1cn(C)c2ccccc12)NC(=O)[C@H](Cc1ccc(O)cc1)NC(=O)[C@@H](NC(=O)[C@H](CC(N)=O)NC(=O)[C@H](CCC(=O)O)NC(=O)[C@H](Cc1ccc(O)cc1)NC(C)=O)C(C)(C)C)c1ccccc1)C(N)=O
B2: R3192 (peptide)
peptide: Ac-KVERFD[NMeD][Tle]Y[Trp(7-aza)]EYP[Chg]K-NH2
modifications: lactam 1-6
SMILES: CC(=O)N[C@H]1CCCCNC(=O)C[C@@H](C(=O)N(C)[C@@H](CC(=O)O)C(=O)N[C@H](C(=O)N[C@@H](Cc2ccc(O)cc2)C(=O)N[C@@H](Cc2c[nH]c3ncccc23)C(=O)N[C@@H](CCC(=O)O)C(=O)N[C@@H](Cc2ccc(O)cc2)C(=O)N2CCC[C@H]2C(=O)N[C@H](C(=O)N[C@@H](CCCCN)C(N)=O)C2CCCCC2)C(C)(C)C)NC(=O)[C@H](Cc2ccccc2)NC(=O)[C@H](CCCNC(=N)N)NC(=O)[C@H](CCC(=O)O)NC(=O)[C@H](C(C)C)NC1=O
B3: R3119 (peptide)
peptide: Ac-YENY[dW]EYP[Phg][Nva]-NH2
SMILES: CCC[C@H](NC(=O)[C@@H](NC(=O)[C@@H]1CCCN1C(=O)[C@H](Cc1ccc(O)cc1)NC(=O)[C@H](CCC(=O)O)NC(=O)[C@@H](Cc1c[nH]c2ccccc12)NC(=O)[C@H](Cc1ccc(O)cc1)NC(=O)[C@H](CC(N)=O)NC(=O)[C@H](CCC(=O)O)NC(=O)[C@H](Cc1ccc(O)cc1)NC(C)=O)c1ccccc1)C(N)=O
B4: R3041 (peptide)
peptide: Ac-YEN[Tle]YWEYP[Phg][Nva]-NH2
SMILES: CCC[C@H](NC(=O)[C@@H](NC(=O)[C@@H]1CCCN1C(=O)[C@H](Cc1ccc(O)cc1)NC(=O)[C@H](CCC(=O)O)NC(=O)[C@H](Cc1c[nH]c2ccccc12)NC(=O)[C@H](Cc1ccc(O)cc1)NC(=O)[C@@H](NC(=O)[C@H](CC(N)=O)NC(=O)[C@H](CCC(=O)O)NC(=O)[C@H](Cc1ccc(O)cc1)NC(C)=O)C(C)(C)C)c1ccccc1)C(N)=O
B5: R3194 (peptide)
peptide: Ac-KVERFD[NMeD][Tle]Y[Trp(7-aza)]EYP[Chg]K(Palmitoyl)-NH2
modifications: lactam 1-6
SMILES: CCCCCCCCCCCCCCCC(=O)NCCCC[C@H](NC(=O)[C@@H](NC(=O)[C@@H]1CCCN1C(=O)[C@H](Cc1ccc(O)cc1)NC(=O)[C@H](CCC(=O)O)NC(=O)[C@H](Cc1c[nH]c2ncccc12)NC(=O)[C@H](Cc1ccc(O)cc1)NC(=O)[C@@H](NC(=O)[C@H](CC(=O)O)N(C)C(=O)[C@@H]1CC(=O)NCCCC[C@H](NC(C)=O)C(=O)N[C@@H](C(C)C)C(=O)N[C@@H](CCC(=O)O)C(=O)N[C@@H](CCCNC(=N)N)C(=O)N[C@@H](Cc2ccccc2)C(=O)N1)C(C)(C)C)C1CCCCC1)C(N)=O

Legend:
Assay in all cases: cell-based or functional assay
human C5 protein [1] = biological target: T1, human C5 protein (human, UniProt P01031 19-673; P01031 678-1676)
human C5 protein [2] = biological target: T1, human C5 protein; remark: listed apart in the source
human C5 protein [3] = biological target: T1, human C5 protein; remark: listed apart in the source
human C5 protein [4] = biological target: T1, human C5 protein; remark: listed apart in the source
human C5 protein [5] = biological target: T1, human C5 protein; remark: listed apart in the source
human C5 protein [6] = biological target: T1, human C5 protein; remark: listed apart in the source
human C5 protein [7] = biological target: T1, human C5 protein; remark: listed apart in the source

Binder	Avg. IC50, human hemolysis assay (human C5 protein [1])	Avg. IC50, hemolysis assay with C5 depleted sera (human C5 protein [3])	other results
Ac-[Nva]C[Phg]TAEY[NMeS]HC[Nva]-NH2 (linker 2-10 via mXylyl(4)) [R3034]	> 50000 nM	–	Avg. IC50 (nM), human hemolysis assay (human C5 protein [2]): > 50000 nM
Ac-KVERFD[NMeD][Tle]YWEYP[Chg]K(Palmitoyl) (lactam 1-6) [R3195]	–	62.5 nM	–
VCYENGYWEYPGV (Ac-Nvl-C-Y-E-N-Tbg-Y-azaTrp-E-Y-P-Phg-Nvl-NH2) [R3002]	–	–	IC50, formation of C5a (C5a EIA on human RBC hemolysis supernatant) (human C5 protein [4]): 5.4 nM
Ac-[Nva]C[Phg]TFEY[NMeS]AC[Nva]-NH2 (linker 2-10 via mXylyl(3)) [R3092]	> 50000 nM	–	Avg. IC50 (nM), human hemolysis assay (human C5 protein [2]): > 50000 nM
[Mpa]VERFC[NMeD][Tle]Y[Trp(7-aza)]EYP[Chg]K(Palmitoyl) (bridge 1-6; also: cyclo(1,6) between Cys1 and Cys6, ring kind not given here) [R3198]	–	142 nM	–
[Mpa][dA]ERFC[NMeD][Tle]Y[Trp(7-aza)]EYP[Chg]K(Palmitoyl) (bridge 1-6; also: cyclo(1,6) between Cys1 and Cys6, ring kind not given here) [R3199]	–	112 nM	–
Ac-[Nva]C[Phg]T[Trp(1-Me)]EY[NMeS]AC[Nva]-NH2 (linker 2-10 via mXylyl(3)) [R3109]	> 100000 nM	–	Avg. IC50 (nM), human hemolysis assay (human C5 protein [2]): > 100000 nM
Ac-CVERFC[Thp][Tle]Y[Trp(7-aza)]EYP[Chg][Nva] (linker 1-6 via mXylyl(3)) [R3186]	–	18 nM	–
Ac-[Nva]C[Phg]TWEY[NMeS]AC[Nva]-NH2 (linker 2-10 via mXylyl(3)) [R3091]	483 nM	–	Avg. IC50 (nM), human hemolysis assay (human C5 protein [2]): 483 nM
Ac-[Nva]C[Phg]TW[Ala(1H-tetrazol-5-yl)]Y[NMeS]HC[Nva]-NH2 (linker 2-10 via mXylyl(3)) [R3131]	> 100000 nM	–	Avg. IC50 (nM), human hemolysis assay (human C5 protein [2]): > 100000 nM
B1	2940 nM	–	Avg. IC50 (nM), human hemolysis assay (human C5 protein [5]): 2940 nM
B2	–	1.5 nM	–
MCVERFCDVYWE-NH2 (linker 2-7 via mXylyl(4)) [R3043]	934 nM	–	Avg. IC50 (nM), human hemolysis assay (human C5 protein [6]): 934 nM
MCVERFCDVY-NH2 (linker 2-7 via mXylyl(4)) [R3045]	> 100000 nM	–	Avg. IC50 (nM), human hemolysis assay (human C5 protein [6]): > 100000 nM
MCVERFC-NH2 (linker 2-7 via mXylyl(4)) [R3047]	> 100000 nM	–	Avg. IC50 (nM), human hemolysis assay (human C5 protein [6]): > 100000 nM
Ac-CAERFCD[Tle]Y[Trp(7-aza)]EYP[Phg]K(Palmitoyl) (linker 1-6 via m‑xylyl) [R3189]	–	81.5 nM	–
MCVERFCDVYW-NH2 (linker 2-7 via mXylyl(4)) [R3044]	> 50000 nM	–	Avg. IC50 (nM), human hemolysis assay (human C5 protein [6]): > 50000 nM
Ac-[Nva]CYNN[Tle]ECEYP[Phg][Tle]-NH2 (cysteine pairing not given here) [R3128]	> 100000 nM	–	Avg. IC50 (nM), human hemolysis assay (human C5 protein [5]): > 100000 nM
Ac-[Nva]CYEN[Tle]YCEYP[Phg][Nva]-NH2 (linker 2-8 via mXylyl″) [R3017]	> 100000 nM	–	Avg. IC50 (nM), human hemolysis assay (human C5 protein [5]): > 100000 nM
MCVERFCDV-NH2 (linker 2-7 via mXylyl(4)) [R3046]	> 100000 nM	–	Avg. IC50 (nM), human hemolysis assay (human C5 protein [6]): > 100000 nM
Ac-KVERFD[NMeD][Tle]YWEYP[Chg]K (lactam 1-6) [R3196]	–	3 nM	–
B3	> 100000 nM	–	Avg. IC50 (nM), human hemolysis assay (human C5 protein [5]): > 100000 nM
B4	71.3 nM	–	Avg. IC50 (nM), human hemolysis assay (human C5 protein [5]): 71.3 nM
Ac-CVERFCVYWEF-NH2 (linker 1-6 via mXylyl(3)) [R3124]	> 100000 nM	–	Avg. IC50 (nM), human hemolysis assay (human C5 protein [7]): > 100000 nM
Ac-[Nva]C[Phg]T[Trp(5-F)]EY[NMeS]AC[Nva]-NH2 (linker 2-10 via mXylyl(3)) [R3088]	> 100000 nM	–	Avg. IC50 (nM), human hemolysis assay (human C5 protein [2]): > 100000 nM
Ac-[Nva]C[Phg]T[Trp(7-aza)]EY[NMeS]HC[Nva]P[Nva]-NH2 (linker 2-10 via mXylyl″) [R3008]	97 nM	–	IC50, formation of C5a (C5a EIA on human RBC hemolysis supernatant) (human C5 protein [4]): 54.5 nM; IC50, formation of the MAC (MAC EIA on human RBC hemolysis supernatant) (human C5 protein [4]): 33 nM; Avg. IC50 (nM), human hemolysis assay (human C5 protein [2]): 97 nM
B5	–	15.5 nM	–
Ac-[Nva]C[Phg]T[dW]EY[NMeS]HC[Nva]-NH2 (linker 2-10 via mXylyl(3)) [R3132]	> 100000 nM	–	Avg. IC50 (nM), human hemolysis assay (human C5 protein [2]): > 100000 nM
Ac-KVERFD[NMeD][Tle]YWEYP[Chg][Lys(ivDde)] (lactam 1-6) [R3197]	–	4 nM	–
Ac-[Nva]CYNN[Tle]ECEYP[Phg][Tle]-NH2 (linker 2-8 via mXylyl(3)) [R3129]	> 100000 nM	–	Avg. IC50 (nM), human hemolysis assay (human C5 protein [5]): > 100000 nM
